The assay has as its target FLAG-tagged MIWI piRISC made in BmN4 cells (mouse) (UniProt Q9JMB7).

One substance from article doi:10.1101/2021.05.04.442675 can be followed below.

FLAG-tagged MIWI piRISC made in BmN4 cells (mouse), sequence (Q9JMB7 whole entry): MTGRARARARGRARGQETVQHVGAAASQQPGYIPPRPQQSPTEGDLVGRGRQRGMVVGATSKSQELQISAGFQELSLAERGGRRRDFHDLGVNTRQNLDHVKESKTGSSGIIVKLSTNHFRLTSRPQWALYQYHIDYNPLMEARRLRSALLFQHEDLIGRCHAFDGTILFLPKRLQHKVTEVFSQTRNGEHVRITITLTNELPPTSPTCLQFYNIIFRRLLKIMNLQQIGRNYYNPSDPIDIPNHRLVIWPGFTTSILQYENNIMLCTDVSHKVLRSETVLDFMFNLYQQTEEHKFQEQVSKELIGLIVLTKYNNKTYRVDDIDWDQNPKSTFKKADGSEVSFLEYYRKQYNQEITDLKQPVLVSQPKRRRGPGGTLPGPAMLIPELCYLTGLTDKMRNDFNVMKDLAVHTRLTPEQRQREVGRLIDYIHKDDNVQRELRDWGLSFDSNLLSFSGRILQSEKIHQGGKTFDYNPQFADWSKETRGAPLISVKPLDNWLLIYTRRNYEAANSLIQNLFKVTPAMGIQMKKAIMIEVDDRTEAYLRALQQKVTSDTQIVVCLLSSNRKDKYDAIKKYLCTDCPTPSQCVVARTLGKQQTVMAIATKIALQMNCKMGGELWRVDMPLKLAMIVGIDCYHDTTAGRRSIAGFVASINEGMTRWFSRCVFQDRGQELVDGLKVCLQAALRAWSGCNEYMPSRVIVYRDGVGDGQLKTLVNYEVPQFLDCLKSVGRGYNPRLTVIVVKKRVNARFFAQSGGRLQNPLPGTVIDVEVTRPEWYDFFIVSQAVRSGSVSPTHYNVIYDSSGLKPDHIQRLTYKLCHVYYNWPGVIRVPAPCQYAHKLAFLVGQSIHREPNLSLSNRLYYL

Take “BmGtsf1-like, silk moth (Bombyx mori), V5SBP-tagged recombinant (natural protein)”: the increase in the amount of target cleaved by MIWI piRISC (S.D. = 0.1; p = 0.0027) worked out at 2.6 fold.
